Experiment [1] deals with neuropeptide Y (Homo sapiens), P01303. Briefly: competition. The following applies: remark: other sources report otherwise.
In another experiment the target is K^18-TAMRA-NPY. Put plainly: fluorescence polarisation; various concentrations of receptor in small DMPC/DHPC bicelles with 50 nM (K^18-TAMRA)-NPY, 1 h at room temperature, measured at 20 °C; sigmoidal dose-response fit. For orientation: In fluorescence polarisation assays a small probe gives low polarisation when free and higher when bound to something large.

Positions count from the first letter of the chain named.

B1: neuropeptide Y receptor Y2, P49146 (protein)
chain: MGPIGAEADENQTVEEMKVEQYGPQTTPRGELVPDPEPELIDSTKLIEVQVVLILAYCSIILLGVIGNSLVIHVVIKFKSMRTVTNFFIANLAVADLLVNTLCLPFTLTYTLMGEWKMGPVLCHLVPYAQGLAVQVSTITLTVIALDRHRCIVYHLESKISKRISFLIIGLAWGISALLASPLAIFREYSLIEIIPDFEIVACTEKWPGEEKSIYGTVYSLSSLLILYVLPLGIISFSYTRIWSKLKNHVSPGAANDHYHQRRQKTTKMLVCVVVVFAVSWLPLHAFQLAVDIDSQVLDLKEYKLIFTVFHIIAMCSTFANPLLYGWMNSNYRKAFLSAFRCEQRLDAIHSEVSVTFKAKKNLEVRKNSGPNDSFTEATNV
The Kd is the constant that tells how readily two partners part at equilibrium. The low end stands for higher affinity, the high end for lower affinity. In experiment [1], B1 yielded a Kd of 2.3 nM.

B2: Y2R_A202^45.49C-Δ6Cys-polyHis, P49146 1-381 (receptor)
chain: B1 chain with C58A, C103A, C151A, A202C, C272S, C316A, C342S
modifications: not checked
On to B2, for which the Kd with K^18-TAMRA-NPY was determined as 61.4 nM.

The values are drawn from publication PMC10419011.
